# Data published in the supplement of paper PMC11316812.
# ± gives the standard deviation of the averaged measurements.
# How the values were obtained:
# [1] = tested on: MCF7; assay: percentage of EdU-negative (G0-arrested) nuclei per well, 72 h; higher = more G0 arrest; settings: reference: sequence is the full UniProt precursor, the tested protein was the secreted form or ectodomain
# [2] = tested on: hTERT-HMEC; assay: as above; settings: reference: sequence is the full UniProt precursor, the tested protein was the secreted form or ectodomain
# [3] = protein concentration 0.0225 µM
# [4] = protein concentration 0.0165525 µM
# [5] = protein concentration 0.165525 µM
# [6] = protein concentration 0.03125 µM
# [7] = protein concentration 0.3125 µM
# 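Further: secreted proteins added to cultured cells, EdU pulse at the end, nuclei found by Hoechst imaging, EdU status from nuclear versus surrounding ring intensity ratio, PBS as neutral control.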
Sequence,"percentage of EdU-negative [1, 3]",percentage of EdU-negative ([1]; protein concentration 0.225 µM),"percentage of EdU-negative [2, 3]",percentage of EdU-negative ([2]; protein concentration 0.225 µM),also measured
MTLTLSVLICLGLSVGPRTCVQAGTLPKPTLWAEPASVIARGKPVTLWCQGPLETEEYRLDKEGLPWARKRQNPLEPGAKAKFHIPSTVYDSAGRYRCYYETPAGWSEPSDPLELVATGFYAEPTLLALPSPVVASGGNVTLQCDTLDGLLTFVLVEEEQKLPRTLYSQKLPKGPSQALFPVGPVTPSCRWRFRCYYYYRKNPQVWSNPSDLLEILVPGVSRKPSLLIPQGSVVARGGSLTLQCRSDVGYDIFVLYKEGEHDLVQGSGQQPQAGLSQANFTLGPVSRSHGGQYRCYGAHNLSPRWSAPSDPLDILIAGLIPDIPALSVQPGPKVASGENVTLLCQSWHQIDTFFLTKEGAAHPPLCLKSKYQSYRHQAEFSMSPVTSAQGGTYRCYSAIRSYPYLLSSPSYPQELVVSGPSGDPSLSPTGSTPTPGPEDQPLTPTGLDPQSGLGRHLGVVTGVSVAFVLLLFLLLFLLLRHRHQSKHRTSAHFYRPAGAAGPEPKDQGLQKRASPVADIQEEILNAAVKDTQPKDGVEMDAPAAASEAPQDVTYAQLHSLTLRREATEPPPSQEREPPAEPSIYAPLAIH,26.64 ± 0.18%,24.8 ± 1.6%,5.56 ± 0.57%,4.64 ± 0.082%,–
MTMETQMSQNVCPRNLWLLQPLTVLLLLASADSQAAAPPKAVLKLEPPWINVLQEDSVTLTCQGARSPESDSIQWFHNGNLIPTHTQPSYRFKANNNDSGEYTCQTGQTSLSDPVHLTVLSEWLVLQTPHLEFQEGETIMLRCHSWKDKPLVKVTFFQNGKSQKFSHLDPTFSIPQANHSHSGDYHCTGNIGYTLFSSKPVTITVQVPSMGSSSPMGIIVAVVIATAVAAIVAAVVALIYCRKKRISANSTDPVKAAQFEPPGRQMIAIRKRQLEETNNDYETADGGYMTLNPRAPTDDDKNIYLTLPPNDHVNSNN,–,–,–,–,"percentage of EdU-negative [1, 4]: 26.5 ± 1.3%; percentage of EdU-negative [1, 5]: 25.5 ± 0.26%; percentage of EdU-negative [2, 4]: 4.6 ± 0.053%; percentage of EdU-negative [2, 5]: 5.2 ± 0.11%"
MTPALTALLCLGLSLGPRTRVQAGPFPKPTLWAEPGSVISWGSPVTIWCQGSLEAQEYQLDKEGSPEPLDRNNPLEPKNKARFSIPSMTQHHAGRYRCHYYSSAGWSEPSDPLELVMTGFYNKPTLSALPSPVVASGGNMTLRCGSQKGYHHFVLMKEGEHQLPRTLDSQQLHSGGFQALFPVGPVTPSHRWRFTCYYYYTNTPRVWSHPSDPLEILPSGVSRKPSLLTLQGPVLAPGQSLTLQCGSDVGYDRFVLYKEGERDFLQRPGQQPQAGLSQANFTLGPVSPSHGGQYRCYGAHNLSSEWSAPSDPLNILMAGQIYDTVSLSAQPGPTVASGENVTLLCQSRGYFDTFLLTKEGAAHPPLRLRSMYGAHKYQAEFPMSPVTSAHAGTYRCYGSYSSNPHLLSFPSEPLELMVSGHSGGSSLPPTGPPSTPASHAKDYTVENLIRMGMAGLVLVFLGILLFEAQHSQRNPQDAAGR [Q6PI73],22.6 ± 0.32%,24.9 ± 4.2%,5.69 ± 0.33%,5.12 ± 0.84%,–
MTPHRLLPPLLLLLALLLAASPGGALARCPGCGQGVQAGCPGGCVEEEDGGSPAEGCAEAEGCLRREGQECGVYTPNCAPGLQCHPPKDDEAPLRALLLGRGRCLPARAPAVAEENPKESKPQAGTARPQDVNRRDQQRNPGTSTTPSQPNSAGVQDTEMGPCRRHLDSVLQQLQTEVYRGAQTLYVPNCDHRGFYRKRQCRSSQGQRRGPCWCVDRMGKSLPGSPDGNGSSSCPTGSSG,–,–,–,–,"percentage of EdU-negative [1, 6]: 25 ± 1.6%; percentage of EdU-negative [1, 7]: 25.79 ± 0.037%; percentage of EdU-negative [2, 6]: 4.84 ± 0.44%; percentage of EdU-negative [2, 7]: 5.17 ± 1%"
MTPILTVLICLGLSLGPRTHVQAGHLPKPTLWAEPGSVIIQGSPVTLRCQGSLQAEEYHLYRENKSASWVRRIQEPGKNGQFPIPSITWEHAGRYHCQYYSHNHSSEYSDPLELVVTGAYSKPTLSALPSPVVTSGGNVTLQCVSQVAFDGFILCKEGEDEHPQRLNSHSHARGWSWAIFSVGPVSPSRRWSYRCYAYDSNSPYVWSLPSDLLELLVPGVSKKPSLSVQPGPMVAPGESLTLQCVSDVGYDRFVLYKEGERDFLQRPGWQPQAGLSQANFTLGPVSPSHGGQYRCYSAHNLSSEWSAPSDPLDILITGQFYDRPSLSVQPVPTVAPGKNVTLLCQSRGQFHTFLLTKEGAGHPPLHLRSEHQAQQNQAEFRMGPVTSAHVGTYRCYSSLSSNPYLLSLPSDPLELVVSEAAETLSPSQNKTDSTTTSLGQHPQDYTVENLIRMGVAGLVLVVLGILLFEAQHSQRSLQDAAGR [Q8N149],23.9 ± 0.99%,26.3 ± 3.1%,5.36 ± 0.5%,4.88 ± 0.47%,–
